Laboratory results as given in US20240376185A1 (SMIVET B V, published 2024).

B1: SVT06-SVT16-L123Q-GS2-SVG13M4-H6 (bispecific antibody)
chain: QVQLQESGGGSVQAGGSLRLSCTASELSYDDYTIAWFRRAAGEGRVEDGEGVASITKSYDRAYDNKINYGHSVKGRFTISRDNAKNTVYLQMTDLLPSDTAVYYCALDITPPGGVGASLTEGFLFDYWGQGTQVTVSSQVQLQESGGGSVQAGDSLRLSCAASGRTISNYAMGWFRQAPGKQREFVAAISRSDNTYYTDSVKGRFTISRDNAKNTLYLQMNSLKPEETAVYYCAADPNLMYESKWKYRALEAWGQGTQVTVSSGGGGSGGGSEVQLVESGGGLVQPGGSLRLSCEASGFTFDDYGMSWVRQAPGKGLEWVSSLTPNGGSTYYADSVKGRFTISRDNAKNTLYLQMNSLKPEDTALYYCAKNSYYGAMDYWGQGTQVTVSSHHHHHH
B2: SVT16-L123Q-GS2-SVA12M2-H6 (bispecific antibody)
chain: QVQLQESGGGSVQAGDSLRLSCAASGRTISNYAMGWFRQAPGKQREFVAAISRSDNTYYTDSVKGRFTISRDNAKNTLYLQMNSLKPEETAVYYCAADPNLMYESKWKYRALEAWGQGTQVTVSSGGGGSGGGSEVQLVESGGGLVQAGGSLRLSCAASGRTFSYYPMAWFRQAPGQEREFVAAIIGADTTYYADSLKGRFTISRDNAKNMVYLQMNSLKPEDTAVYYCAARNTYWSDVYYREGQYTNWGQGTQVTVSSHHHHHH
B3: SVT16-L123Q-GS2-SVG13M4-H6 (bispecific antibody)
chain: QVQLQESGGGSVQAGDSLRLSCAASGRTISNYAMGWFRQAPGKQREFVAAISRSDNTYYTDSVKGRFTISRDNAKNTLYLQMNSLKPEETAVYYCAADPNLMYESKWKYRALEAWGQGTQVTVSSGGGGSGGGSEVQLVESGGGLVQPGGSLRLSCEASGFTFDDYGMSWVRQAPGKGLEWVSSLTPNGGSTYYADSVKGRFTISRDNAKNTLYLQMNSLKPEDTALYYCAKNSYYGAMDYWGQGTQVTVSSHHHHHH
B4: SVT06-GS3-SVT16-L123Q-GS2-SVA12M2-H6 (bispecific antibody)
chain: QVQLQESGGGSVQAGGSLRLSCTASELSYDDYTIAWFRRAAGEGRVEDGEGVASITKSYDRAYDNKINYGHSVKGRFTISRDNAKNTVYLQMTDLLPSDTAVYYCALDITPPGGVGASLTEGFLFDYWGQGTQVTVSSGGGGSGGGGSGGGGSQVQLQESGGGSVQAGDSLRLSCAASGRTISNYAMGWFRQAPGKQREFVAAISRSDNTYYTDSVKGRFTISRDNAKNTLYLQMNSLKPEETAVYYCAADPNLMYESKWKYRALEAWGQGTQVTVSSGGGGSGGGSEVQLVESGGGLVQAGGSLRLSCAASGRTFSYYPMAWFRQAPGQEREFVAAIIGADTTYYADSLKGRFTISRDNAKNMVYLQMNSLKPEDTAVYYCAARNTYWSDVYYREGQYTNWGQGTQVTVSSHHHHHH
B5: SVT20L-L123Q (VHH)
VHH: QVQLQQSGGGLVQAGGSLRLSCAASGRTMSSYAMGWFRQAPGKQREFVAAISRSGGNTYYTDSVKGRFTISRDNAKNTLYLQMNSLKPEETAVYYCAADPNLMYESKWKYRALEAWGQGTQVTVSS
B6: SVT34L-L123Q (VHH)
VHH: QVQLQESGGGLVQPGGSLRLSCAASGRTISSYAMGWFRQAPGKQREFVAAISRSGGNTYYTDSVKGRFIISRDNAKNTLYLQMNNLKPEETAVYYCAADPNLMYESKWKYRALEAWGQGTQVTVSS

Columns and labels:
[1] = biological target: Tetanus neurotoxin (TeNT), authentic tetanus holotoxin (Clostridium tetani, UniProt P04958 2-1315)
[2] = biological target: T1, tetanus neurotoxin (TeNT), authentic tetanus holotoxin (Clostridium tetani, UniProt P04958 2-1315)
[3] = biological target: T1, tetanus neurotoxin (TeNT), authentic …; assay: cell-based or functional assay
[4] = biological target: tetanus neurotoxin (TeNT), authentic tetanus holotoxin (Clostridium tetani, UniProt P04958 2-1315); remark: listed apart in the source

Row | Binder | Kd [2] [nM] | koff [2] [s⁻¹] | kon [2] [M⁻¹ s⁻¹] | Endpoint dilution factor [3] | SDA concentration providing full protection [3] [nM] | IC50 [4] [µg/mL] | also measured
1 | B1 |  |  |  |  |  |  | Kd [1]: 0.0159 nM; koff [1]: 6.61e-06 s⁻¹; kon [1]: 417000 M⁻¹ s⁻¹
2 | B2 | 0.224 | 0.000199 | 886000 |  |  |  | 
3 | B3 | 0.227 | 0.000184 | 665000 | < 1 | > 1000 |  | 
4 | B4 | 0.0133 | 1.32e-05 | 989000 | > 32 | 3.1 |  | Potency IU/mg [3]: > 93.1 IU/mg
5 | B5 |  |  |  |  |  | 0.038 | 
6 | B6 |  |  |  |  |  | 0.034 | 
